The results in this text go back to PMC3438949.

The target in the assay is tapasin-ERp57 heterodimer, endogenous (human (endogenous in human cell lines)) (UniProt O15533). The assay can be described thus: co-IP.
UniProt O15533, sequence (O15533 21-448, chain 1 of 2): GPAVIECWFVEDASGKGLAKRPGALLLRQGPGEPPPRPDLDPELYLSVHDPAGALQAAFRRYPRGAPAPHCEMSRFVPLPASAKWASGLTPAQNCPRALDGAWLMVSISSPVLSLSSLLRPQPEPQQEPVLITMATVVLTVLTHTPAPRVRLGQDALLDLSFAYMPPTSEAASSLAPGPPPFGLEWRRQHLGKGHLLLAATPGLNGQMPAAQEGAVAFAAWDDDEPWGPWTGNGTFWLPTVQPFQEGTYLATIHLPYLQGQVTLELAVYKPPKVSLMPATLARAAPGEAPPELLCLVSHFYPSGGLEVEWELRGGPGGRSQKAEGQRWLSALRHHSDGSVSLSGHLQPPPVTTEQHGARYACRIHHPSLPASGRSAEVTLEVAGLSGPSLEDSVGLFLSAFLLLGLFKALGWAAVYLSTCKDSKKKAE
UniProt O15533, sequence (P30101 25-505, chain 2 of 2, further chain): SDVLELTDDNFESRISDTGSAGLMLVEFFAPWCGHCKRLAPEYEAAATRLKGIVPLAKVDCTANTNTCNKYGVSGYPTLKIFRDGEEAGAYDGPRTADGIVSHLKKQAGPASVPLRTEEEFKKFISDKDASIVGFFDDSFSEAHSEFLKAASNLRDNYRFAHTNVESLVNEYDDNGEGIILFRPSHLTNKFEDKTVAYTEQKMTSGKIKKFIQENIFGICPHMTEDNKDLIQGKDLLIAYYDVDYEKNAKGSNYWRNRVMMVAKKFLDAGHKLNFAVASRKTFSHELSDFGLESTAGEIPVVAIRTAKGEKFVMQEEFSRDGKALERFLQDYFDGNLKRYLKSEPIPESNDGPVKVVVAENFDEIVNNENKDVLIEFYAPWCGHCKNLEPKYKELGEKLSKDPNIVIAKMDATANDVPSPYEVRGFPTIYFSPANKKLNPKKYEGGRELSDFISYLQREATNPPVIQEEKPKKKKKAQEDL

Regarding “CFP-tagged HLA-A2 (from UniProt P61769 21-119) (complex)”, the percent of HLA-A2-CFP precipitated by PaSta1 alone (HeLaM.A2-CFP cells) amounted to 20%.
The substance “HLA-C4, endogenous in C1R cells (from UniProt P61769 21-119) (complex)” registered a percent of PLC-associated HLA-C4 precipitated by PaSta1 alone (C1R.A2-His cells) of 60%.
The substance “endogenous MHC I of HeLaM cells (HLA-A6802, -B1503 and -C1203) (from UniProt P61769 21-119) (complex)” registered a percent of endogenous MHC I precipitated by PaSta1 alone (HeLaM.A2-CFP cells) of 60%.
